Data from patent US20040022777A1, “Fragments and antagonists of heat shock protein 60” (priority 1999, published 2004).

What was measured:
Type in all cases: cell-based, mouse
[1] = test system: bone marrow-derived macrophages of C57BL/6 and C3H/HeN mice; experiment: NO (nitrite) production by bone marrow-derived macrophages with wild-type Tlr4 (Griess reaction); conditions: 24 h
[2] = test system: bone marrow-derived macrophages of C3H/HeJ mice (mutant Toll-like receptor 4); experiment: NO (nitrite) production by bone marrow-derived macrophages with mutant Tlr4 (Griess reaction)
[3] = test system: bone marrow-derived macrophages of C3H/HeJ mice (mutant Toll-like receptor 4); experiment: TNFα production by bone marrow-derived macrophages with mutant Tlr4 (sandwich ELISA)
[4] = test system: bone marrow-derived macrophages of C57BL/6 and C3H/HeN mice; experiment: TNFα production by bone marrow-derived macrophages with wild-type Tlr4 (sandwich ELISA)

B1: hsp60: Recombinant human hsp60 obtained from StressGen Biotechnologies (protein)
chain: AKDVKFGADARALMLQGVDLLADAVAVTMGPKGRTVIIEQSWGSPKVTKDGVTVAKSIDLKDKYKNIGAKLVQDVANNTNEEAGDGTTTATVLARSIAKEGFEKISKGANPVEIRRGVMLAVDAVIAELKKQSKPVTTPEEIAQVATISANGDKEIGNIISDAMKKVGRKGVITVKDGKTLNDELEIIEGMKFDRGYISPYFINTSKGQKCEFQDAYVLLSEKKISSIQSIVPALEIANAHRKPLVIIAEDVDGEALSTLVLNRLKVGLQVVAVKAPGFGDNRKNQLKDMAIATGGAVFGEEGLTLNLEDVQPHDLGKVGEVIVTKDDAMLLKGKGDKAQIEKRIQEIIEQLDVTTSEYEKEKLNERLAKLSDGVAVLKVGGTSDVEVNEKKDRVTDALNATRAAVEEGIVLGGGCALLRCIPALDSLTPANEDQKIGIEIIKRTLKIPAMTIAKNAGVEGSLIVEKIMQSSSEVGYDAMAGDFVNMVEKGIIDPTKVVRTALLDAAGVASLLTTAEVVVTEIPKEEKDPGMGAMGGMGGGMGGGMF
- hsp60 concentration required for eliciting NO [1]: 3 µg/mL
- nitrite levels on increasing the hsp60 concentration tenfold ([1]; C3H/HeN macrophages): about five times higher nitrite levels
- NO production ([1]; C57BL/6 and C3H/HeN macrophages, LPS 10 ng/ml, hsp60 10 μg/ml): same outcome
- NO production ([2]; C3H/HeJ (Tlr4 defective) macrophages, LPS 10 ng/ml, hsp60 10 μg/ml, 24 h): complete lack of a nitric oxide response
- NO production, time course ([2]; C3H/HeJ macrophages, 10 μg/ml hsp60, up to 72 h): no indication of NO production
- NO response on increasing the hsp60 concentration tenfold ([2]; Tlr4 defective macrophages, 24 h): completely refractory
- TNFα response ([3]; C3H/HeJ macrophages, LPS 10 ng/ml, hsp60 10 μg/ml, oligonucleotides 30 μg/ml, 6 h): no response
- TNFα response, dose dependence ([3]; C3H/HeJ macrophages, even at ten times higher hsp60 levels, 6 h): no such response
- TNFα production, time course ([3]; Tlr4 defective macrophages, 10 μg/ml hsp60, observation period of 72 h): absent
- time of peak levels of secreted TNFα ([4]; C3H/HeN macrophages, 10 μg/ml hsp60): 6 to 12 h
- TNFα secretion ([4]; C57BL/6 and C3H/HeN macrophages, LPS 10 ng/ml, hsp60 10 μg/ml, 6 h): rapid secretion of large amounts of TNFα
